Reference: patent US7662770

Molecular target: EphA2 receptor tyrosine kinase, endogenous in MCF-10A and MDA-MB-231 human mammary epithelial cells (UniProt P29317)
Chain of UniProt P29317 (P29317 whole entry, looked up): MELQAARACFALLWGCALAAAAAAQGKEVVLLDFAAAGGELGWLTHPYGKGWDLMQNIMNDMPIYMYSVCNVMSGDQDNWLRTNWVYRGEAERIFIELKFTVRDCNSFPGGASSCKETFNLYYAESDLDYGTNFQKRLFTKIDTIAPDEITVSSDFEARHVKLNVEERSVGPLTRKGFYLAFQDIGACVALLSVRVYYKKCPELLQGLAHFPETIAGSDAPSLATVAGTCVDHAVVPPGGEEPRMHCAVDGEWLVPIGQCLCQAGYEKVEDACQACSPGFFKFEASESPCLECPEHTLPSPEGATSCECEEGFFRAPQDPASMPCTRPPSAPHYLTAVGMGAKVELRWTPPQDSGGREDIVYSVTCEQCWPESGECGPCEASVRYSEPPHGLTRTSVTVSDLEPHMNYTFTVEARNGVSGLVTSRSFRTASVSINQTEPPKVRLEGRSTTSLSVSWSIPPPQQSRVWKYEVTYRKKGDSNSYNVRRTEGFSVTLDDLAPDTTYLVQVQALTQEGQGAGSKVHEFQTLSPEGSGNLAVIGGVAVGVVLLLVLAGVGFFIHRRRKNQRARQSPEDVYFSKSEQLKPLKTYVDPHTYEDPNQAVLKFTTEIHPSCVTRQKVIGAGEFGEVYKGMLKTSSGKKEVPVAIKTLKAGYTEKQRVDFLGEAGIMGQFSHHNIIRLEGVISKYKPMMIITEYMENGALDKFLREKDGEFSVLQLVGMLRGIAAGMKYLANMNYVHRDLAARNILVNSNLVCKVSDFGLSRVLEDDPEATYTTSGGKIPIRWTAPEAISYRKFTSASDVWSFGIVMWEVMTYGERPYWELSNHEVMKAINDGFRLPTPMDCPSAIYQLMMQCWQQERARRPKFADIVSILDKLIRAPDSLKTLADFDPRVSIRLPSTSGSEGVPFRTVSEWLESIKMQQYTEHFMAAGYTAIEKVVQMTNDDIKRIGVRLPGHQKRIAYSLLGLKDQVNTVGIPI

Q: Which “dephosphorylation of immunoprecipitated EphA2 (Western blot with PY20 and 4G10)” value does the source give for “purified LMW-PTP protein (used in the in vitro dephosphorylation assays)” here?
A: purified LMW-PTP could dephosphorylate EphA2 in a dose and time-dependent manner
